Drawing on publication PMC9584609, this text covers stoichiometry N for two substances.

Test [1] addresses ClC-2 tagged with mVenus and PAmCherry (human) (UniProt P51788). The test is described as follows: native gel or EMSA; high-resolution clear native electrophoresis (hrCNE); lysate of transfected HEK293T cells in 0.1 M sodium phosphate with 0.5% digitonin or 20 mM DDM; 4-14% acrylamide gradient gel run at 4 °C; mVenus fluorescence scanned; VGLUTs and sialin with and without PNGaseF. For orientation: In EMSA bound probe runs differently from free probe, usually more slowly.

Test [2] has as its target bClC-K tagged with mVenus and PAmCherry (Bos taurus). The test is described as above.

Sequence of ClC-2 tagged with mVenus and PAmCherry (P51788 2-898): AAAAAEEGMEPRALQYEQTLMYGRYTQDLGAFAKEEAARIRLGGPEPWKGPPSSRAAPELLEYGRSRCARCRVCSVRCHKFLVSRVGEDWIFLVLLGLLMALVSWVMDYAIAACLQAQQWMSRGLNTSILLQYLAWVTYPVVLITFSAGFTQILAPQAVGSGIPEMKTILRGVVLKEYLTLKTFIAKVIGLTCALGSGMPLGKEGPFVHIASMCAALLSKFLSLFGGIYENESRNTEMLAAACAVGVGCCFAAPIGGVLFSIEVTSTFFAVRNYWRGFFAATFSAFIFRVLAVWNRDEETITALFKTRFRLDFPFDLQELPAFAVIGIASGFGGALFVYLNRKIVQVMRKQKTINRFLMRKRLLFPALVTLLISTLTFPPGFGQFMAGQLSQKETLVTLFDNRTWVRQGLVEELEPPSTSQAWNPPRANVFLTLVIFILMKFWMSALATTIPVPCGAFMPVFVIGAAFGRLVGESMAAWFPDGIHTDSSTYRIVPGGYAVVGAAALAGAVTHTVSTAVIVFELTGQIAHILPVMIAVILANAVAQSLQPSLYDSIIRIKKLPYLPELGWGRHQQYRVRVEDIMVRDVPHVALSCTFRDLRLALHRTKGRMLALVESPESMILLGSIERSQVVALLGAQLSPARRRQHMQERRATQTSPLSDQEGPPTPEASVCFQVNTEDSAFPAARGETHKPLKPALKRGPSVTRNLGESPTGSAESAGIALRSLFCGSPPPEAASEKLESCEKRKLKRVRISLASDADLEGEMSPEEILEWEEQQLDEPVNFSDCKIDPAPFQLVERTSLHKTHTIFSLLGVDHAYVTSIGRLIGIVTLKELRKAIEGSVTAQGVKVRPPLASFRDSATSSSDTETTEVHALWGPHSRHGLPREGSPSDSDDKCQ

As usually defined, the stoichiometry N is a count of units in the complex or per binding partner. “ClC-2 tagged with mVenus and PAmCherry (from UniProt P51788 1-898) (natural protein)”: in test [1], the stoichiometry N stood at 2. “bClC-K tagged with mVenus and PAmCherry (natural protein)”: in test [2], the stoichiometry N came to 2.
